# Values quoted from earlier work as cited in article PMC3849016.
# pKd: −log10 of the molar value.
# Molecular target: VEGFR2 (vascular endothelial growth factor receptor 2) (UniProt P35968)
# Details: printed Z = 5-N-(benzylcarboxyamide)-2'-deoxyuridine (BzdU), written here as U at every Z; all other residues are DNA; 5' H2N-C6; not stated for the supplier …
# UniProt P35968, sequence (P35968 whole entry): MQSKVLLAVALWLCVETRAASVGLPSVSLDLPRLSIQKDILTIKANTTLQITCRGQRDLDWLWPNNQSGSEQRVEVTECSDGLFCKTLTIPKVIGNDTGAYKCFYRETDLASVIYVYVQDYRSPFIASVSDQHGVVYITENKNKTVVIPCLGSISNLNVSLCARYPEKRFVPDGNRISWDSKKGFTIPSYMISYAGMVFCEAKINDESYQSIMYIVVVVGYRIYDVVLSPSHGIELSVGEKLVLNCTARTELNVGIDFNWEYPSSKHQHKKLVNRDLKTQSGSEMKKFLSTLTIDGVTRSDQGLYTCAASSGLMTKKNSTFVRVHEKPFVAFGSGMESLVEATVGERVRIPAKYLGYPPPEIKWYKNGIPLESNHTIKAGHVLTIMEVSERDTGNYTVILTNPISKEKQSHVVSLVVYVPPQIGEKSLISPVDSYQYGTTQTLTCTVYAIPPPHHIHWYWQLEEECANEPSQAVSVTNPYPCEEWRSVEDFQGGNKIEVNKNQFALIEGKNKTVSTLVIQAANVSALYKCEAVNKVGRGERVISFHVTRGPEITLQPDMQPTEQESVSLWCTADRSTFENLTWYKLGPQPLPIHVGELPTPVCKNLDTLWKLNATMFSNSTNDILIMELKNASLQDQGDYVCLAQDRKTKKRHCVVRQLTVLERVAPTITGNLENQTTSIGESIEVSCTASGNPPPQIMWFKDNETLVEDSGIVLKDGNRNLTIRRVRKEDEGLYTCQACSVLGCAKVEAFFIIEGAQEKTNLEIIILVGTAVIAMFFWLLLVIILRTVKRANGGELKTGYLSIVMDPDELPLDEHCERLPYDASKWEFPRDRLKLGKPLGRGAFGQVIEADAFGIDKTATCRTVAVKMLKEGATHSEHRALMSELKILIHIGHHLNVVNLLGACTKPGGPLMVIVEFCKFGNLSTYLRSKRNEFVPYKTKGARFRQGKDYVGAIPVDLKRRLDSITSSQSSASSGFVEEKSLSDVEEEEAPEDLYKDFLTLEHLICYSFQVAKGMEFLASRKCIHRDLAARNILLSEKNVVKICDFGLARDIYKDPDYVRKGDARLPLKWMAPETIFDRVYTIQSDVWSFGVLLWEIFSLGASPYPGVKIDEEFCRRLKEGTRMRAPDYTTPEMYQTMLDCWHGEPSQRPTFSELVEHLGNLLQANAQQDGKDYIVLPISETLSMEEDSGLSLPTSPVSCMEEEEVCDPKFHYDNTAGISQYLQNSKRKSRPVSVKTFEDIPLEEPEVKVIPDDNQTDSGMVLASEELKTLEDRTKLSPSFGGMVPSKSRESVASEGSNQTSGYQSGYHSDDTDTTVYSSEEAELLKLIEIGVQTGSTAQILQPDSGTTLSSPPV
sequence,measurement,value
ACGAGCUACGACGUCUGGUGUAAUUUAUAAAGACACUGUGUAUAUCAACAA [anti-VEGFR2 DNA aptamer (Aptamer Science Cat. 186)],pKd,9.92
